According to publication PMC7572726 (Nature, 2020):

Molecular target: the molecule itself
Test: crystal structure

B1: Flavobacteriaceae sp. STING (ΔTM) (domain or fragment)
chain: EAEYSPAFALAVGYFKNFIFPAITQIKENGEVNPKICIYKPKHFDELTSTNIDMIKAELTNKKYNLSEINLSLKGARARDILTLNKKSKIHSYFDFPNTLLSLYSYVDFKIASSNNNSSELKKKKFVELLIEQFYLKLNELIQENNLTNNITFCDKNLQGL
stoichiometry N: 2
